In the DeepSol protein solubility set:

Assay: soluble on expression in E. coli; label from the status in PepcDB or PDB records

Row | Sequence | soluble on expression in E. coli
1 | MSLDLSVDRSSPVPLYFQLSQQLEAAIEHGALTPGSLLGNEIELAARLGLSRPTVRQAIQSLVDKGLLVRRRGVGTQVVHSKVRRPLELSSLYDDLEAAGQRPATKVLVNTVVPATAEIAAALGVAEDSEVHRIERLRLTHGEPMAYLCNYLPPGLVDLDTGQLEATGLYRLMRAAGITLHSARQSIGARAATSGEAERLGEDAGAPLLTMERTTFDDTGRAVEFGTHTYRPSRYSFEFQLLVRP | soluble
2 | MKKTYVLDTNVLLQDPHAIFAFQDNEVVIPAVVLEEVDSKKRYMDEIGRNARHFSKLIDQLRGLGKLHEGVPLENGGKLRIELNHKSYEKVKDSFAEMTNDNRIIAVALNLSLEETEKPNGNQVILVSKDALVRVKADALRLKAEDFLNDRVIQYDRGY | not soluble
3 | MLVTTTERISGQEYEIIGEVFGLTTRSKNMFKDLGAGLKSVVGGEIKGYTDMQREARDQAIERLKAEASKLGADAVVMMRFDSGTIGTDMQSVVAYGTAVKYILEHHHHHH | not soluble
4 | METKDLIVIGGGINGAGIAADAAGRGLSVLMLEAQDLACATSSASSKLIHGGLRYLEHYEFRLVSEALAEREVLLKMAPHIAFPMRFRLPHRPHLRPAWMIRIGLFMYDHLGKRTSLPGSTGVRFGADSVLKPEIVRGFEYSDCWVDDARLVLANAQMVVRKGGEVLTRTRATAARRENGLWIVEAEDIDTGKKYVWQARGLVNATGPWVKQFFDEGMHLPSPYGIRLIKGSHIVVPRVHNQKQAYILQNEDKRIVFVIPWMEEFSIIGTTDVEYKGDPKAVKIEESEINYLLKVYNAHFQKQLGRDDIVWTYSGVRPLCDDESDSPQAITRDYTLDIHDENGKAPLLSVFGGKLTTYRKLAEHAMEKLASYYPGIGPAWTKTCVLPGGDIDGSREDYAAKLRRRYPFLTESLARHYSRTYGSNTEWILGEATSLLDLGEDFGHEFYEAELKYLVDHEWVRRTEDAIWRRTKEGMWLTAEQQSRITQWLAAYVEKHQLSMASLEHHHHHH | soluble
5 | SNAMSKITFKDIYIDGNKITEDSRKAIYLLPPQPLKYASNTWIYKTMPTMNQWLKDIEVQKKMHLNQSSYHLSFSFPANEKIDEVLLEKIRELGFQIGVLELYVIEAKALKELSRKRDVDIQLVSSNNINDYLHVYDAFARPFGDSYANMVKQHIYSSYNLDDIERLVAYVNHQPVGIVDIIMTDKTIEIDGFGVLEEFQHQGIGSEIQAYVGRMANERPVILVADGKDTAKDMYLRQGYVYQGFKYHILKENI | soluble
6 | MVVVCASHIQPAIICRFTWLRFLMEIILIRHGKPTSANNPVLNAVDFTKWVRRYNFSDVSTNSRPDSILDEYKSHYIVSSDLERAIHSASIYTGQSPELTSKLYREMEIPRYKFPLRFKAMTWVYINRAFWMLGLKGSFESYRQAKIRAELASDHLVELAREQDKVILFGHGYLNLHIRRSLIKKGWKLNSKSNGFWGISSLEGLEHHHHHH | not soluble
7 | MTVTFYSYPKCGTCQKAKKWFEANDVAYEMIHIVENPPSKEDLRNLHEKSELPLKKFFNTSGMRYRELGLKDKLKDASEDEMYELLASDGMLIKRPIVTDGTNVTLGFNEEQFESVWKKYQ | not soluble
8 | SQYKNISEKIVHIIQQEFDTDLTLESIAGRLHYNPNYLSSIFRKEMKISFSEYLSSYRHHIAKNWLTETTMSVKEISEKLKYKNPQNFIRSFKKLEGITPGKYRELKNHS | soluble
9 | SEPQEERETQVAAWLKKIFGDHPIPQYEVNPRTTEILHHLSERNRVRDRDVYLVIEDLKQKASEYESEAKYLQDLLMESVNFSPANLSSTGSRYLNALVDSAVALETKDTSLASFIPAVNDLTSDLFRTKSKSEEIKIELEKLEKNLTATLVLEKCLQEDVKKAELHLSTERAKVDNRRQNMDFLKAKSEEFRFGIKAAEEQLSARGMDASLSHQSLVALSEKLARLKQQTIPLKKKLESYLDLMPNPSLAQVKIEEAKRELDSIEAELTRRVDMMEL | soluble
10 | MSLATNKKEIIRLLEEIATYMELKGENSFKISAFRKAAQAIELDSRSLSEIDDFTKISGIGKTTGEIIQRYLDSGECPELEELKKEVPAGLVPLLDVPGLGGKKLSRLYHELGVVDKDTLLQEAENGHIEALKGFGKKSAEKMAEAVREMGERPDRYPLNDVLPIIQKVEAYLAEIAPIETFAQAGSLRRLRETVKDLDYVIATEKPEDVQKALLAFPLITDVIGAGETKVSAVLEDNITISVDFRLVEKKAFATTLHHFTGSKDHNIKMRQLAKQSNEKISEYGVEQEDGTVRHFESEKTFFEHFKIPFLPPEVRRDGTEIERVTKDTKFLELSDIRGDLHMHTTWSDGAYAIPEMIEACIAKGYEYMVITDHGKFLRVANGLDEKRLLEQQAEIKKIAAKYPEIDVYSGVEMDILADGSLDFDDETLKQLDFVIASIHSSFQQSEEEIMKRLKTACENPYVRLIAHPTGRIVVKRKPYHVNMKELIQLAKSTGTALELNANPQRLDLNREHLEMAHAAGVPIAINTDAHDTKHLDFMSIGVRAATKAWLGKSAILNTKTAAEFKQFLQNKEGHHHHHH | soluble
11 | MSLILLNTITDQVSVSETQTKSPRLWMPERVLFTPAALGEDWGQQILARVQSLNLPIEELSQNRLKGLRGESERDTYNIAKRTLAVVTAPPSSFKLSPIPPSADWQFHIAEGCPAHCQYCYLAGSLSGPPVIRVFANLPQILENLANYEQQGKTTTFEVSCYTDPLGIEHLTGSLAECIRYFGTRTNAHLRWVSKFDAVDGLLDLPHNGNTRCRMSVNAAPISGKFEGGTASVASRLNALRRLALPQERGGGGYPVGLVIAPIMPIDDWQMHYSRLFDQINEALDFDCNFTFELISHRFTPGSKEVLQAWYPQSKLEMDEAKRSVKRNKFGGTKYVYEKDTMKALRSFFESEISRRFPNAETLYWTEGHHHHHH | soluble
12 | MTARPYEPPPDYPMIEQRWPTTVRNSSIHPHVSSAHPSYRSHSIDAAVNRSSSACFHSPHRPSFPSRGLQKYDYPICGVSPSRHLSYNHFYNQSAAEIEEMLRTRQFPEIAGIYGNDEQPSLRRFTRYNQSINSRAVPPPAPPNPPKMEKHMSHDTSGRGSIFSKSSKKPLFFMGNWTFRDRNKSARPSISEALREERPQSMNLSDIKPATRSKSGEVLGPRNHIHIESITEFPRNIETRVPVKIERSSMVRRKPSNMGGSTEVSITSSSPSPSSSSSTSTGEFKTTITVDDDHQPTAVMRPKKESDTRGTLNNNRYSFQSCVQLRKSCPDLDSTAMSNMEQHRVSKKRTRRAKEKMSQAAWKRKTVKEWSLDDVLLWLQSAQMDDVAGLLIGYDLRGEDLLQWNDQTLAQLGVSNPEIRKKLLDDLSKIIENGPEPAQEDIRNNHRTLFDIVKQTSYDQVLAVETPLTTRDITVTHGRLGCLQITKVNGANLPLKEHDCLLEINERAGEQFKSALMLTKLISDSNGAAIRFVVLRRKTNLVVEESQQKESSSSGISSSPQTPTE | not soluble
13 | MISNFKSISLTYRKAPLEIRERVALNEAECKSLMLRIKDFTDTAELLILSTCNRTEIYYTSNEDYSNDIIKLLGVEKNITGLIQQKEYFEIYNEQADAVLHLFEVGIGLDSQVVGDMQIVNQVKYAYQWSADLNLAGPFLHRLMHTIFFTNKRVVQETAFRDGAASVSYATVELSEELLSATPNANILIVGLGEIGADVCRNFKANTSFKNITLTNRSPLKSEALAAECGIEHVPFETLWEAVAKADLVISSVAKEEPLFTKEEIQKLSILSHKYFIDLSVPRSVDARAEELPGIIVYDIDHIQNRSNEALENRLNAIPHVRKIILDSIVEFNEWSKEMEVSPTINKLKNALEQIRKEELSRFVKQLSDEEAKKVDEITKSIMQKIIKLPVLQLKAACKRGEAETLIDVLNDLFNLDKQPEQIRD | not soluble
14 | MKKYLFAEQGFVEKPDFGADCWVCVETPDAEDMKFLIDTLNVPEDFLSDIADADERPRVEHDGDWHLTILRIPIESRLSGVPYVTVPMGIATRSDVTVSVCYHRAPMLADFLLHTRRKRIKVLNRTELVLRLIYSSAVWFLKYLKQINNEVTISERELERSIRNEDLIHLMMLQKTLVYFSTSIRGNEAVLGKIRASGENRIDEELVEDVRIELRQAYNTVNIYSDILSGTTEALSGVISNNLNTIMKR | not soluble
15 | MLEQPYLDLAKKVLDEGHFKPDITHTGTYSIFGHQMRFDLSKGFPLLTTKKVPFGLIKSELLWFLHGDTNIRFLLQHRNHIWDEWAFEKWVKSDEYHGPDMTDFGHRSQKDPEFAAVYHEEMAKFDDRVLHDDAFAAKYGDLGLVYGSQWRAWHTSKGDTIDQLGDVIEQIKTHPYSRRLIVSAWNPEDVPTMALPPCHTLYQFYVNDGKLSLQLYQRSADIFLGVPFNIASYALLTHLVAHECGLEVGEFIHTFGDAHLYVNHLDQIKEQLSRTPRPAPTLQLNPDKHDIFDFDMKDIKLLNYDPYPAIKAPVAV | soluble
16 | MKLVLFDCDGTLVDSAGLIHAVMSETFADFGKPRPDISETKAIIGLTLDIAIARMLGRAHVDDEAAAMALRYKENYHPLRERFENATPLFDGIASLIDMLSKRDDVLIGAVTGKGRRGLTQILETHGFADHFIVSRTADDCPSKPHPAMVMECCHETGMVPADTIVIGDAIYDMQMAKAAGAKAIGVAWGYASVEDLWKAGADAVVNHPNDIPAYVPADITE | not soluble
17 | MHCPFCFAVDTKVIDSRLVGEGSSVRRRRQCLVCNERFTTFEVAELVMPRVVKSNDVREPFNEEKLRSGMLRALEKRPVSSDDVEMAINHIKSQLRATGEREVPSKMIGNLVMEQLKKLDKVAYIRFASVYRSFEDIKEFGEEIARLED | soluble
18 | MGSDKIHHHHHHSDDKDSYPVPSDIENLKATPAPGQITLSWTNPADENLYYVQIEYTIGATGKSYRKQVSQYANELVIDNLLQKYGEINFTVQAFNRGNTAGTIHQITAQAEKASPTFGTPVKIDLDYKKIWTNAPFPTRPIKDLVDGNIATFFHSWWSSLVEMPHYLVVDLGEEVSAIKFRSTNTNRANDSSWKTINLYTSDSYNPAEWFDGVEKIDGNTVDISQAGTHKETTLTGLPDGVSEVYNSEVIPLSKPSRYLWFEVTETTKGTPYFALGELEIYQCSMVVLE | not soluble
19 | MAKRIQFSTVGGPEVLEYVDFEPEAPGPQAVVVRNKAIGLNFIDTYYRSGLYPAPFLPSGLGAEGAGVVEAVGDEVTRFKVGDRVAYGTGPLGAYSEVHVLPEANLVKLADSVSFEQAAALMLKGLTVQYLLRQTYQVKPGEIILFHAAAGGVGSLACQWAKALGAKLIGTVSSPEKAAHAKALGAWETIDYSHEDVAKRVLELTDGKKCPVVYDGVGQDTWLTSLDSVAPRGLVVSFGNASGPVSGVNLGILAQKDSVYVTRPTLGSYANNAQNLQTMADELFDMLASGKLKVDGIEQYALKDAAKAQIELSARRTTGSTILIP | soluble
20 | MSLQEGQNRKTSSLSILAIAGVEPYQEKPGEEYMNEAQLSHFKRILEAWRNQLRDEVDRTVTHMQDEAANFPDPVDRAAQEEEFSLELRNRDRERKLIKKIEKTLKKVEDEDFGYCESCGVEIGIRRLEARPTADLCIDCKTLAEIREKQMAGEGGSHHHHHH | soluble
21 | MGSDKIHHHHHHMTKARKVLVSALCFTALIGEAAVGREQVVLKPSGQWNINYADESCQLARTFGVGDQKTLVQFERFGPENGFALMIVSPLLKFQENFRAVPNRMLHPTKRQYLDTVFQFLPGGEPYKQPGIPAMDAASRQPTLMAFLSLEGPRKDAAPTATGTASASEDRKLTNEERLALEKATNALLVEQPFNDPIRFELGSLAQPFATLAACTDDLVRSWGLQTDPEHAAVNPPKPIGSPSEWFDDKKLAERVWSKRENAIIYFRMIVSDKGAPESCVIQDSSQTTELRDLSCRALMGKARFTPGTNAAGQSVRSVYRGAVRYFTSRN | not soluble
